The target in experiment [1] is T1, human TNF-α (human, UniProt P01375 77-233). As to the kind of experiment: cell-based or functional assay.
The target in experiment [2] is T1, human TNF-α. As to the kind of experiment: kinetic exclusion assay (KinExA 3000), Fab in solution with human TNF-α; lower end of the range. The procedure:
(§1) Next, binding kinetics of three of the Fab fragments described in Table 4 were determined in a kinetic exclusion assay. Affinity measurements were performed on a KinExA™3000 instrument (Sapidyne Instruments, Inc., Boise, Id.) using Fab fragments (A10K, A9K, and A10P) released from the periplasmic space whose concentration was determined by a quantitative ELISA. Briefly, antigen and antibody fragment were allowed to react in solution and the fraction of unbound reagent was determined by capture and measured on a bead support. Binding kinetics can be determined or calculated from the amount of unbound reagent. For instance, after interaction between TNF-α and a Fab fragment has occurred in solution, binding of the unreacted, free Fab fragment to TNF-α coated beads can be measured on the instrument by detection with a labeled secondary antibody to the Fab fragment (e.g., a goat anti-IgG (heavy and light)). […] A total of 13 tubes were used for each Kd determination. For A10K and A10P, the Fab concentration was 10 pM with the human TNF-α concentration beginning at 160 pM and then serially diluted to 0.078 pM with the final tube containing no human TNF-α. […] After the incubation, the amount of unbound Fab in the equilibrated samples was determined on the KinExA™3000 instrument according to the manufacturer's instructions. Kd values were determined by the instrument software.

Experiment [3] has as its target T1, human TNF-α. As to the kind of experiment: kinetic exclusion assay (KinExA 3000), Fab in solution with human TNF-α; upper end of the range. The procedure:
as §1
For orientation: Kinetic exclusion samples the free partner from a solution-phase mixture.

The target in experiment [4] is T1, human TNF-α. As to the kind of experiment: calculated from Kd = koff/kon (KinExA data). The procedure:
Next, binding kinetics of three of the Fab fragments described in Table 4 were determined in a kinetic exclusion assay. Affinity measurements were performed on a KinExA™3000 instrument (Sapidyne Instruments, Inc., Boise, Id.) using Fab fragments (A10K, A9K, and A10P) released from the periplasmic space whose concentration was determined by a quantitative ELISA. Briefly, antigen and antibody fragment were allowed to react in solution and the fraction of unbound reagent was determined by capture and measured on a bead support. Binding kinetics can be determined or calculated from the amount of unbound reagent. For instance, after interaction between TNF-α and a Fab fragment has occurred in solution, binding of the unreacted, free Fab fragment to TNF-α coated beads can be measured on the instrument by detection with a labeled secondary antibody to the Fab fragment (e.g., a goat anti-IgG (heavy and light)). […] After the incubation, the amount of unbound Fab in the equilibrated samples was determined on the KinExA™3000 instrument according to the manufacturer's instructions. Kd values were determined by the instrument software.
To measure kₒₙ, individual Fab fragments at a concentration of 40 pM were mixed with 400 pM of hTNF-α. […] The resulting data was used to calculate the kₒₙ with the instrument software. koff was calculated by using the formula Kd=koff/kₒₙ.

For experiment [5], the target named is T1, human TNF-α. In words: kinetic exclusion assay (KinExA 3000), 40 pM Fab mixed with 400 pM hTNF-α, time course. The method, then: To measure kₒₙ, individual Fab fragments at a concentration of 40 pM were mixed with 400 pM of hTNF-α. A series of measurements were taken over a time course. The resulting data was used to calculate the kₒₙ with the instrument software. koff was calculated by using the formula Kd=koff/kₒₙ.

Where “and” joins values, the source holds several entries; their conditions need not be identical. Identical values can stand only once.

T1 sequence (P01375 77-233 limits assumed): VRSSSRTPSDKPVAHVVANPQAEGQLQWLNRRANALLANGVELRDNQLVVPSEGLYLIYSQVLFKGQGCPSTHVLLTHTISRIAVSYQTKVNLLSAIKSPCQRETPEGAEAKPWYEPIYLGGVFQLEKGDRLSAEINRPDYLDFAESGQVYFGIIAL

B1: A10K Fab fragment (Fab, V domains shown)
VH: EVQLVESGGGLVQPGGSLRLSCAASGFKFSNHWMNWVRQAPGKGLEWVGEIRSKSMNSATHYAESVKGRFTISRDDSKNSLYLQMNSLKTEDTAVYYCARNYYGSTYDHWGQGTLVTVSS
VL: EIVLTQSPDFQSVTPKEKVTITCRASQFVGYSIHWYQQKPDQSPKLLIKYASESRSGVPSRFSGSGSGTDFTLTINSLEAEDAATYYCQQSHSWHFTFGQGTKVEIK
notes: Fab released from the E. coli periplasm; Against hu1: light chain S31Y, M55R
Turning to B1, in experiment [1], the “L929 cell protection assay (prevention of TNF-α-mediated cell death), EC50” value is roughly 25 pM and the “L929 cell protection assay, EC50” value was roughly 67 pM. For the same molecule, the Kd in experiment [2] was no less than 3.5 pM. In experiment [3], this molecule returned a dissociation constant (Kd) of no more than 7.2 pM. Further, the off-rate (koff) in experiment [4] is 1.96e-05 s⁻¹ and 3.76e-05 s⁻¹. Moreover, the kon in experiment [5] is 3.92e+06 M⁻¹ s⁻¹ and 7.51e+06 M⁻¹ s⁻¹.

B2: A10K IgG (antibody, V domains shown)
VH: EVQLVESGGGLVQPGGSLRLSCAASGFKFSNHWMNWVRQAPGKGLEWVGEIRSKSMNSATHYAESVKGRFTISRDDSKNSLYLQMNSLKTEDTAVYYCARNYYGSTYDHWGQGTLVTVSS
VL: EIVLTQSPDFQSVTPKEKVTITCRASQFVGYSIHWYQQKPDQSPKLLIKYASESRSGVPSRFSGSGSGTDFTLTINSLEAEDAATYYCQQSHSWHFTFGQGTKVEIK
For the molecule B2, the “L929 cell protection assay, EC50” value in experiment [1] is roughly 2.7 pM.

As a reminder, the Kd is the concentration at which binding is half-saturated. Higher therefore signals lower affinity. What is called koff is the rate constant with which the complex falls apart. As usually defined, the kon is the second-order rate constant of association.

The values above are taken from patent US20040131612A1 (APPLIED MOLECULAR EVOLUTION, published 2004).
